Experimental data as given in the DeepSol protein solubility set.

Experiment: soluble on expression in E. coli; label from the status in PepcDB or PDB records

**Q.** For “MADERRCGVCRPLGGPRQPWPAGLLHCSSRAIFASLCMPRIVFAPAIQRHVAMPALDVGAATVAAALQAAFAREPRLRGYLLDDQGSLRRHVALFVDGVQVRDRRGLGDPLQDDSEIYVVQALSGGLEHHHHHH”, which “soluble on expression in E. coli” value is on record?
**A.** not soluble

**Q.** Which “soluble on expression in E. coli” value does the source give for “MADFDNLFDAAIARADETIRGYMGTSATITSGEQSGAVIRGVFDDPENISYAGQGVRVEGSSPSLFVRTDEVRQLRRGDTLTIGEENFWVDRVSPDDGGSCHLWLGRGVPPAVNRRR” here?
**A.** soluble

**Q.** With “MADKKAPAAGWPVANGEYVVGNPESCVAVITLGSHGLDQAAIDAGAAISGPCHTENLGIEKVVANYISNPNIRFMVIAGSEVQGHITGQCIKALYENGIGDDGGIIGAKGAIPFMENVGKEPVGRLQTQVVECIDLIDVEDKGKIADAIKNCISKDPGAFEEDPMVIELEGGAAAAGDEEGGLMIEGIPTVAEPDIESIKSLNEALDYKVGLMTRDLGLASGVQTETVTG” as the sequence, how does the “soluble on expression in E. coli” value read?
**A.** not soluble

**Q.** For “MADLDDIKDGKDFHTDKPQTNTLFALKGCGALDWGMQSRLARIFNPKTRKTVMLAFDHGYFQGPTTGLERIDINIAPLFEYADVLMCTRGILRSVVPPAINKPVVLRASGANSILTELSNEAVAVAMDDAVRLNSCAAAAQVYIGSEHEHQSIKNIIQLIDAGLRVGMPIMAVTGVGKDMARDQRYFSLATRIAAEMGAQIIKTYYVDKGFERIAAGCPVPIVIAGGKKLPEREALEMCYQAIDQGASGVDMGRNIFQSEDPVAMIKAVHAVVHHNETAERAYELFLSEKS”, which “soluble on expression in E. coli” value is on record?
**A.** not soluble

**Q.** Which “soluble on expression in E. coli” value does the source give for “MADNKITFFGKCDGISVEQLIRYSRFNMNVKHFHNQYEIFYIIEGERQFFFDNKSYNAYAGDIAILDTNLVHTTCSISDEDKGYNRVILYIDYEKMCDFDKKYPGLNLVNYFHNNYGIYHLNEDQRIAFLNLYRDLRHELTKKNSGYQSRVEIATIYWLYKLLSLKHDSTQIHAVINSPKE” here?
**A.** not soluble

**Q.** For “MADNPTNLRNADFRKLLTSARSDRPAVSAFAKPADPKTGDDKPASFKHKHLKPAKFKKPQAAAHGKAKKEKTEADEDEAALKNILKNYRDRAAERRKQGDEKEDPSKLTAAYRAVPGDARSAQDQADLRKQAILESKYLGGDLEHTHLVKGLDYSLLNKVRSEIDKSDDDDDDDIDTAFDEKVTSSSSSSKPSEASLLAQELAQSHSENRMVRSLHRVLFKNEVPLHNQLFAKGRMAYVVELEDEETDIPTTLLRSLHDLPRAESAQSIQANNLIILKLSHVLSHLRAEPKKKKKEEFRVQLGSRDAPGAAAAAPGAKGDSIYDDLDDYVPSRKSRDSRDAGRRGSRRDRSRDRSRDRDRDRDRDNRDRYFEKSANSRREEEQNRREQQRERERAEQERRREREKEREQEKAKEREKKRKELEESSGYDECYPGGLVEMGGAWDSDEEADYSKMDAGPKKNQAVNRWDFDTEEEYASYMEGREALPKAAYQYGVKNGEGGRKNKKQSAVSDAKRLDRELNEINKIMDKRKAGGDGAGGGGDYKKPKY”, which “soluble on expression in E. coli” value is on record?
**A.** not soluble

**Q.** For “MADNSDANGVPYYFLINMGGGFVEGEQYQVTIDVNKDAHALVTTQTPTYVYKCEKGQLTQQNTSITLEENSYLEYMADEVIPYLKSRYFQTSRIDMDKSAHLIYSDGVTAGWSHEDLPFQYHYFRNLTQIYQDNELVYSDQTLLEPEKQDMFKLGYFEGWRNYNSLVMVSPNIDEAFVKALQKHLEGLNLESDFAISSLDISGLVLRILGKTAEDNRRIIYSCADYFRQEIHGLTPLNLRKNDMRRLEHHHHHH”, which “soluble on expression in E. coli” value is on record?
**A.** not soluble

**Q.** Which “soluble on expression in E. coli” value does the source give for “MADRNLRDLLAPWVAGLPARELREMTLDSRVAAAGDLFVAVVGHQADGRRYIPQAIAQGVAAIIAEAKDEASDGEIREMHGVPVVYLSQLNERLSALAGRFYHEPSENMRLVAVTGTNGKTTTTQLLAQWSQLLGETSAVMGTVGNGLLGKVIPTENTTGSAVDVQHVLASLVAQGATFGAMEVSSHGLVQHRVAALKFAASVFTNLSRDHLDYHGDMAHYEAAKWMLYSTHHHGQAIVNADDEVGRRWLASLPDAVAVSMEGHINPNCHGRWLKAEAVEYHDRGATIRFASSWGEGEIESRLMGAFNVSNLLLALATLLALGYPLTDLLKTAARLQPVCGRMEVFTAPGKPTVVVDYAHTPDALEKALQAARLHCAGKLWCVFGCGGDRDKGKRPLMGAIAEEFADIVVVTDDNPRTEEPRAIINDILAGMLDAGQVRVMEGRAEAVTNAIMQAKDNDVVLIAGKGHEDYQIVGTQRLDYSDRVTAARLLGVIA” here?
**A.** not soluble

**Q.** For “MADSTITIRGYVRDNGCSVAAESTNFTVDLMENAAKQFNNIGATTPVVPFRILLSPCGNAVSAVKVGFTGVADSHNANLLALENTVSAASGLGIQLLNEQQNQIPLNAPSSALSWTTLTPGKPNTLNFYARLMATQVPVTAGHINATATFTLEYQDNHHHHHHKQADSTITIRGYVRDN”, which “soluble on expression in E. coli” value is on record?
**A.** soluble

**Q.** For “MADTFFFTPSRRLTVANVAELTGAKLLNPEFSNTVINTLSSLESAGKGSLVFVEHRKFSDALVGSSAVAVFCTNEIVFKVPESMAILVTSTPQRDFAQIGRILFPDSVKPMPWFGQREISPHAHIHPSAKLAGDVCIEAGAVIGRNVEIGSGSLIASTAVIGENCRIGCDCYIAPKVTVQYSLIGDKVHLYPGACIGQDGFGYIGGASGIEKVPQLGRVIIEDGVEIGANTTIDRGTFEDTIIGEGSKIDNLVQIAHNVKIGRYCLIAAQCGIAGSTSIGDMSQLGGSVGVADHIVIGKYVQIAAGSGVMNDIPDGEKWGGSPARPFKQWFREVAALRSIGKVKKEKR”, which “soluble on expression in E. coli” value is on record?
**A.** not soluble

**Q.** Which “soluble on expression in E. coli” value does the source give for “MADVALRITETVARLQKELKCGICCSTYKDPILSTCFHIFCRSCINACFERKRKVQCPICRSVLDKRSCRDTYQITMAVQNYLKLSEAFKKDIENMNTFKSLPPEKMFMESQMPLDITIIPENDGKRCAPDFAIPFLPVRRKRPSRPQPPSAFAEEPAEPVEPPEPATKQPVELQSRVFPLEKLKKDVETSTETYKISREELKNVDIEEYINTLRENSTEIDEIDALFQLMPTMRQFLRNNINQLMEKFHVAPPKKSEKPANRRVSFASSQDLENIKIMTASESLETPPEPIQKLAQKPEVFKSTQNLIDLNLNTAVKKPVVVASDDDEVVEDSEGELQIDEDDLANVTCATSVRNIGKSLCAEYIRGVRQICRICRLPSSANFKKVDLPNLPSSANFEICRTRQKFDSTISTKTTDFFAKNSQLIELVQQCGGEILSCYENLSPEKLYIIFSKHSKAIEESKNIENLYKCDVVTMEWVLDSISEYLILPTQPYKAVDSIGCLQD” here?
**A.** not soluble

**Q.** For “MAEECSGNCDSCGSSSDCSDTKKMMEQQNAQIRDNMSKIKYKIAVMSGKGGVGKSTVTVNLAATLNMMGYKVGVLDGDIHGPNIPQMLGVDQIQPMADENGIYPVSTPQGIKTMSIGYFLPDKNTPIIWRGPKASGAIRQFLSDVNWGELDFLLIDTPPGSGDIQITTLQAIPDIDGVVIVTTPEEVSVLDARKSVSAANTLEIPIIGIVENMGGFVCPECDKVIDIFGKGGGEKAAKELNVFFLGRIPLDIKARVASDRGVPMVTMDCKASEEFKKVVNTVLERIKKELEHHHHHH”, which “soluble on expression in E. coli” value is on record?
**A.** soluble

**Q.** For “MAEEFVTLKDVGMDFTLGDWEQLGLEQGDTFWDTALDNCQDLFLLDPPRPNLTSHPDGSEDLEPLAGGSPEATSPDVTETKNSPLMEDFFEEGFSQEIIEMLSKDGFWNSNFGEACIEDTWLDSLLGDPESLLRSDIATNGESPTECKSHELKRGLSPVSTVSTGEDSMVHNVSEKTLTPAKSKEYRGEFFSYSDHSQQDSVQEGEKPYQCSECGKSFSGSYRLTQHWITHTREKPTVHQECEQGFDRNASLSVYPKTHTGYKFYVCNEYGTTFSQSTYLWHQKTHTGEKPCKSQDSDHPPSHDTQPGEHQKTHTDSKSYNCNECGKAFTRIFHLTRHQKIHTRKRYECSKCQATFNLRKHLIQHQKTHAAKTTSECQECGKIFRHSSLLIEHQALHAGEEPYKCNERGKSFRHNSTLKIHQRVHSGEKPYKCSECGKAFHRHTHLNEHRRIHTGYRPHKCQECVRSFSRPSHLMRHQAIHTAEKPYSCAECKETFSDNNRLVQHQKMHTVKTPYECQECGERFICGSTLKCHESVHAREKQGFFVSGKILDQNPEQKEKCFKCNKCEKTFSCSKYLTQHERIHTRGVKPFECDQCGKAFGQSTRLIHHQRIHSRVRLYKWGEQGKAISSASLIKLQSFHTKEHPFKCNECGKTFSHSAHLSKHQLIHAGENPFKCSKCDRVFTQRNYLVQHERTHARKKPLVCNECGKTFRQSSCLSKHQRIHSGEKPYVCDYCGKAFGLSAELVRHQRIHTGEKPYVCQECGKAFTQSSCLSIHRRVHTGEKPYRCGECGKAFAQKANLTQHQRIHTGEKPYSCNVCGKAFVLSAHLNQHLRVHTQETLYQCQRCQKAFRCHSSLSRHQRVHNKQQYCL”, which “soluble on expression in E. coli” value is on record?
**A.** soluble

**Q.** Which “soluble on expression in E. coli” value does the source give for “MAEIRVGTASWTDPTLLASGWYPPGVRNHPERRLRYYAQHFDTVEVDSTFYALPRLEVVRKWAERTPEGFLFHVKAYSAFTGHGLEASALPKDLQALLPQKEGHLSQREVPEEVVEEAWNRFFASLAPLREAGKLGYLHFGLPPWTEPKPRSFRYLERLAERTQGYLVAVEFRNPRWYTAWGFVKRELMRLGLAHVSVDAPPHPEAPPRVLEPTREVAVLRCHGRNAETWKGPHQKPYERFNWRYSEEELLDLAEATRTLAAQAERVFVIFNNNYGTQGVEAALGLKRLLGLGKPPWAEGPFS” here?
**A.** soluble

**Q.** With “MAEKEHNPGNVKPNRSWTSVLGTKITFSEGLILNIEGYYKYIFNRMYIPVSIGLDDFDIRPQFNGEGRVWGIDLMLQKLQSRYWDGWLSYSYSWARYRDPSSGNATIGFSGGTRGNDWYFPNFHRFHNLNLVINIKPAPQFNFYTRFGLASGTQLPRRTTDRPATYPVFMFDDPETPGIPKFVQRYNWPSETDEDNRTTPTLSMDIKFSFFGKNRTGKTRYEIYFALENVLSLVYRPQGNTRFNTFTGVIETGSDAASYGLPIPIPSFGFKFSY” as the sequence, how does the “soluble on expression in E. coli” value read?
**A.** not soluble

**Q.** Which “soluble on expression in E. coli” value does the source give for “MAEKLGPEKRHAFVHNGQKVFEWDQTLEEVNMYIELPKGVPTKLFHCAIQATHVEVGIRGNPPYLNFYICGSYFLYELSIQFSEQFDEWTPSSEDGEMHITLQKREKGKTWSSPIQGQGSLDPYAADQEQKRLMLQRFQEENPGFDFSQAQFTGTCPDPRTFMGGIRSD” here?
**A.** soluble

**Q.** Which “soluble on expression in E. coli” value does the source give for “MAELACFCYPHLENDSYKFIPFNNLAIKAMLTAKVDKKDMDKFYDSIIYGIAPPPQFKKRYNTNDNSRGMNFETIMFTKVAMLICEALNSLKVTQANVSNVLSRVVSIRHLENLVIRKENPQDILFHSKDLLLKSTLIAIGQSKEIETTITAEGGEIVFQNAAFTMWKLTYLEHQLMPILDQNFIEYKVTLNEDKPISDVHVKELVAELRWQYNKFAVITHGKGHYRIVKYSSVANHADRVYATFKSNVKTGVNNDFNLLDQRIIWQNWYAFTSSMKQGNTLDVCKRLLFQKMKPEKNPFKGLSTDRKMDEVSQVGV” here?
**A.** soluble

**Q.** With “MAELLLGVNIDHIATLRNARGTDYPDPVQAAFIAEQAGADGITVHLREDRRHITDRDVRILRQTLHTRMNLEMAVTEEMLAIAVETRPHFCCLVPEKRQEVTTEGGLDVAGQRDKMRDACARLAAAGIQVSLFIDADETQINAAAEVGAPFIEIHTGCYANAETDAEQAKELARIASAATLAARLGLKVNAGHGLTYHNVKAIAALPEMHELNIGHAIIGRAVMTGLKEAVAEMKRLMLEARG” as the sequence, how does the “soluble on expression in E. coli” value read?
**A.** not soluble

**Q.** For “MAENVGSDSSEFESISSSQKSYLKNCPFAGHEALPTKSTDSDNTEVLGNQISPAVVKTPILSFSSPTSLDSINDDVFRTPPENASLSSAAESEPRVGVSEIKLQGGSNLTTPFSMAETTLVSSSPSLPAENVRVSESNLKSSSSTAKTTPVSASPSVNARVSESNLNSSSSTTPVSVSPSEKVRVFETTPVSASPSEKVRVFETKCHSDSGDSVPLSSSPPSVAADDVRVPAKHLDSDSSPPTAIGRTMVLVKQRISASDNSASSSASEGTKVSKTENSGEVLPFKEIIEALLRNSGEKLNERDDKVSYVEILKQCGLKFPK”, which “soluble on expression in E. coli” value is on record?
**A.** soluble
